Consider eight molecules from US20150056199A1 (ACCELERON PHARMA, published 2015).

Broadly, the Kd is the concentration at which binding is half-saturated. Low readings indicate a tighter complex, high ones a looser complex. A word on the koff: it is a measure of how fast the partners let go of each other. The low end stands for a long-lived complex, the high end for a short-lived complex. What is called kon is the second-order rate constant of association.

Sequences and labels used below:
B1: ALK2 receptor-Fc fusion protein (Fc fusion, human, UniProt Q04771 21-123, looked up)
chain: MEDEKPKVNPKLYMCVCEGLSCGNEDHCEGQQCFSSLSINDGFHVYQKGCFQVYEQGKMTCKTPPSPGQAVECCQGDWCNRNITAQLPTKGKSFPGTQNFHLE
notes: Bought from R&D Systems or made in-house; not shown: IgG1 Fc domain
B2: human GDF15 (hGDF15), mature, generated in-house in CHO cells (ligand)
chain: ARNGDHCPLGPGRCCRLHTVRASLEDLGWADWVLSPREVQVTMCIGACPSQFRAANMHAQIKTSLHRLKPDTVPAPCCVPASYNPMVLIQKTDTGVSLQTYDDLLAKDCHCI
notes: also called MIC-1
B3: ALK7 receptor-Fc fusion protein (Fc fusion, human, UniProt Q8NER5 21-113, looked up)
chain: ELSPGLKCVCLLCDSSNFTCQTEGACWASVMLTNGKEQVIKSCVSLPELNAQVFCHSSNNVTKTECCFTDFCNNITLHLPTASPNAPKLGPME
notes: as for B1
B4: ALK4 receptor-Fc fusion protein (Fc fusion, human, UniProt P36896 24-126, looked up)
chain: SGPRGVQALLCACTSCLQANYTCETDGACMVSIFNLDGMEHHVRTCIPKVELVPAGKPFYCLSSEDLRNTHCCYTDYCNRIDLRVPSGHLKEPEHPSMWGPVE
notes: as for B1
B5: hTβRII-hG1Fc fusion protein (R&D Systems) incorporating the wild-type TβRIIshort isoform (Fc fusion)
chain: IPPHVQKSVNNDMIVTDNNGAVKFPQLCKFCDVRFSTCDNQKSCMSNCSITSICEKPQEVCVAVWRKNDENITLETVCHDPKLPYHDFILEDAASPKCIMKEKKKPGETFFMCSCSSDECNDNIIFSEEYNTSNPD
notes: Bought from R&D Systems; also called hTβRII-Fc; TGFβ receptor type II (TβRII)-Fc; not shown: human IgG1 Fc domain
B6: ALK5 receptor-Fc fusion protein (Fc fusion, human, UniProt P36897 34-126, looked up)
chain: LQCFCHLCTKDNFTCVTDGLCFVSVTETTDKVIHNSMCIAEIDLIPRDRPFVCAPSSKTGSVTTTYCCNQDHCNKIELPTTVKSSPGLGPVEL
notes: Bought from R&D Systems or made in-house; also called TGFβ receptor type I; not shown: IgG1 Fc domain
B7: fusion protein incorporating the wild-type TβRIIlong isoform (R&D Systems) (Fc fusion)
chain: TIPPHVQKSDVEMEAQKDEIICPSCNRTAHPLRHINNDMIVTDNNGAVKFPQLCKFCDVRFSTCDNQKSCMSNCSITSICEKPQEVCVAVWRKNDENITLETVCHDPKLPYHDFILEDAASPKCIMKEKKKPGETFFMCSCSSDECNDNIIFSEEYNTSNPD
notes: Bought from R&D Systems; also called TβRIIlong-Fc; not shown: Fc fusion partner of the purchased construct is not described for this follow-up analysis
B8: murine GDF15 (mGDF15), mature, generated in-house in CHO cells (ligand)
chain: AHPRDSCPLGPGRCCHLETVQATLEDLGWSDWVLSPRQLQLSMCVGECPHLYRSANTHAQIKARLHGLQPDKVPAPCCVPSSYTPVVLMHRTDSGVSLQTYDDLVARGCHCA

In assay [1] the target is B8. The assay can be described thus: surface plasmon resonance with captured receptor-Fc fusion proteins. An excerpt:
(§1) These fusion proteins incorporated an IgG1 Fc domain and were either purchased from R&D Systems or generated in-house.

The target in assay [2] is B5. As to the kind of experiment: surface plasmon resonance at 37° C., hTβRII-Fc captured, hGDF15 as analyte; 37° C.; hTβRII-Fc captured, hGDF15 as analyte.
Source text: as §1

Assay [3] addresses T1, GDF15 (human or murine, not specified where printed).
T1 construct: Used here only where the species cannot be told
As to the kind of experiment: surface plasmon resonance, receptor-Fc captured, GDF15 as analyte.
Source text: as §1

The target of assay [4] is B8. The assay can be described thus: surface plasmon resonance at 37° C., mGDF15. (In SPR one partner is held on a chip, and binding of the other changes the refractive index at the surface.)
Assay [5] has as its target T2, ALK6 receptor-Fc fusion protein (human, UniProt O00238 14-126).
T2 construct: Bought from R&D Systems or made in-house; not shown: IgG1 Fc domain
T2 sequence (looked up): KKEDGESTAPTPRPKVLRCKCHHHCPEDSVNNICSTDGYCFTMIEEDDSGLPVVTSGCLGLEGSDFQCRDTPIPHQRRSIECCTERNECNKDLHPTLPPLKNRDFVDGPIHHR
The assay can be described thus: surface plasmon resonance with captured receptor-Fc fusion proteins.
Source text: as §1

For assay [6], the target named is T3, ALK3 receptor-Fc fusion protein (human, UniProt P36894 24-152).
T3 construct: Bought from R&D Systems or made in-house; not shown: IgG1 Fc domain
T3 sequence (P36894 24-152 limits assumed): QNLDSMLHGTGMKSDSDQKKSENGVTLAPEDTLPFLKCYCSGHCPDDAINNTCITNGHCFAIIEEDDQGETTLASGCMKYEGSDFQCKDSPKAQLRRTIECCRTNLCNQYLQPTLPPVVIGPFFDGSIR
Described as above.
Source text: as §1

For assay [7], the target named is B5. As to the kind of experiment: surface plasmon resonance at 37° C., mGDF15.

B1: in assay [1], the binding result is “no binding (tested: 20 nM or 200 nM)”.
Regarding B2, binding in assay [2] was characterised by a dissociation constant (Kd) of 9.56 nM.
For B3, the binding result in assay [1] is “no binding (tested: 20 nM or 200 nM)”.
The same measure, in the same setting: the entry for B4 is “no binding (tested: 20 nM or 200 nM)”.
In assay [3], B5 returned a koff of 0.001 s⁻¹ and an on-rate constant (kon) of 292000 M⁻¹ s⁻¹.
As to B6, in assay [1], the binding result is listed as “no binding (tested: 20 nM or 200 nM)”.
In assay [4], B7 had a Kd of 2.7 nM.
In the case of B8, the binding result in assay [5] and in assay [6] was “no binding (tested: 20 nM or 200 nM)” each time. The same molecule came in with a Kd in assay [7] of 4.8 nM.
